Source: the supplement of paper PMC10567573
± gives the standard deviation.

Assay: protein stability index of a GFP-peptide fusion (GPS, HEK-293T) (PSI 1-6); higher = more stable
Conditions: c terminus: a fixed tail appended
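Further: 24-mer peptide tiles fused after GFP, lentivirally expressed, FACS-sorted into six equal bins by GFP/DsRed ratio, decoded by Illumina sequencing, PSI is the read-weighted mean bin number.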

| Sequence | protein stability index (treatment: DMSO) | protein stability index (treatment: MLN4924 1 uM, 8 h) |
| --- | --- | --- |
| ANIEEVLQRGEALSALDSKANNLS [SEC22B] | 4.94 ± 0.16 | 4.89 ± 0.18 |
| SKAQELGGAGREDPGLWSRLCRLA [ZSWIM9] | 2.96 ± 0.13 | 3.38 ± 0.33 |
| LLLEMLTFNPHKRISAFRALQHSY [CDK4] | 2.43 ± 0.32 | 2.41 ± 0.25 |
| LCQVAQEALASAGASCCGQPLASH [VENTX] | 3.38 ± 0.27 | 3.42 ± 0.15 |
| STFHTISPSFQLKAAALPPFPLGA [PLAGL1] | 2.48 ± 0.46 | 2.64 ± 0.16 |
| ATRAMGLLNTLSLAFVGGLPLAYQ [TMEM175] | 3.11 ± 0.32 | 2.99 ± 0.56 |
| ICDRTATPLDAFRMTSAAHYYPKL [GFOD1] | 2.85 ± 0.21 | 2.82 ± 0.16 |
| SPSFQLKAAALPPFPLGASAQNGL [PLAGL1] | 3.41 ± 0.32 | 3.52 ± 0.4 |
| RKDKDVARLQDFQELELVLMISEN [ANKRD40] | 2.1 ± 0.47 | 2.13 ± 0.56 |
| VKVLAGQEYAAKIINTKKLSARDH [CAMK2A] | 3.15 ± 0.34 | 3.33 ± 0.11 |
| LVACCLADIFRIYAPEAPYTSPDK [PDS5B] | 3.3 ± 1.4 |  |
| RILGLDQKKDCVPLMKPHRPWADT [HESX1] | 2.34 ± 0.17 | 2.36 ± 0.24 |
| RLVPGGQRPADVPEPGRAGYPAPR [HAGHL] | 4.59 ± 0.13 | 4.68 ± 0.1 |
| RVYPKCTWLTTPKSTWPRYSKPGL [TCF25] | 2.59 ± 0.23 | 2.46 ± 0.12 |
| LTGFSWRGGSDPETTGIQIWSEVF [ATL3] | 2.16 ± 0.33 | 1.59 ± 0.4 |
| STETLVHVSDEDNNADLCLTDDKQ [DLC1] | 5.59 ± 0.36 | 5.59 ± 0.38 |
| GVIVANMTEWKHQRITKQLEKWMQ [GLT8D2] | 2.18 ± 0.085 | 2.4 ± 0.18 |
| QAQAVQTEQAVALLRDRTGQQSDT [SCARA5] | 5.35 ± 0.34 | 5.19 ± 0.23 |
| IVQGSSGAQGSGGGSTSAHYAVNS [CARM1] |  | 3.98 ± 0.91 |
| KSPIAPCSLDKRVILIFHCEFSSE [CDC25B] | 2.73 ± 0.5 | 2.8 ± 0.47 |
| TYNLTEVDKYVNSFVLKNFPALLS [KLHL13] | 2.08 ± 0.26 | 2.28 ± 0.23 |
| PPPPPPPPAELKAEPGFEPADCKR [CEBPB] | 5.52 ± 0.16 | 5.4 ± 0.28 |
| EQEHAAIQDKLFQVAKREREAATK [CHCHD6] | 5.38 ± 0.36 | 5.48 ± 0.16 |

| Sequence | protein stability index (treatment: DMSO) | protein stability index (treatment: MLN4924 1 uM, 8 h) |
| --- | --- | --- |
| TSSLFRTEPMAWNETADLGLDIGA [CTNNB1] | 3.71 ± 0.24 | 3.82 ± 0.59 |
| APTMLHNSSGDFSQAHSTLKLANH [TRAF3IP2] | 4.02 ± 0.19 | 4.18 ± 0.34 |
| DQDEGEWGLDQEQVFSLGDGVSGG [ZBED1] | 5.57 ± 0.17 | 5.42 ± 0.12 |
| VRAAQLCSQHWGGMASFRFPETTF [TBX6] | 2.48 ± 0.59 | 2.1 ± 0.34 |
| MLPTVITDIKDESCCMTEEIFGPV [ALDH8A1] | 3.83 ± 0.2 | 3.81 ± 0.13 |
| CQALPYGPGYWMCCHRSQKGFPGC [FBXO34] | 2.35 ± 0.44 | 2.23 ± 0.32 |
| GDLFESTPEVAAAPKPDAAPSIDL [SNAP91] | 5.3 ± 0.29 | 5.27 ± 0.16 |
| DLHRQFPFHEMFVSRGGHGQQDLF [TBC1D10A] | 2.73 ± 0.17 | 2.8 ± 0.34 |
| QALGTHRPVNKLAELQCEVAALRE [RASAL3] | 3.81 ± 0.38 | 3.75 ± 0.41 |
| KFGRTCLHAAAAGGNVECIKLLQS [ANKRD44] | 2.44 ± 0.45 | 2.55 ± 0.12 |
| NSIAHYRQVNIRTANCTTANQNCV [KCNA1] | 3.17 ± 0.17 | 3.19 ± 0.27 |
| SIVAQVDQTGSKSSNLLDLKNPFF [CARM1] | 3.01 ± 0.15 | 3.43 ± 0.27 |
| AMVLELLGPSLEDLFDLCDRTFTL [CSNK1G1] | 2.52 ± 1.4 | 1.53 ± 0.14 |
| VPPRMGSRAGGPTTPLSPTRLSRL [LMNB1] | 3.92 ± 0.57 | 3.85 ± 0.56 |
| GEYVVTAKAEGFTASTKNCMVGYD [CPXM2] | 4.26 ± 0.28 | 3.65 ± 0.054 |
| VASGSTPAPALCCAPYDSRLLGSA [IRX6] | 2.64 ± 0.21 | 2.99 ± 0.13 |
| AISSVERYDPQTNEWRMVASMSKR [KLHL20] | 3.71 ± 0.22 | 3.99 ± 0.21 |
| AIMCVSCICWSPFLVTMANIGING [PTGFR] | 3.42 ± 0.095 | 3.71 ± 0.45 |
| NIHENKRTGSLFKIWLVVPSLLEL [KLHDC10] | 3.16 ± 0.49 | 3.15 ± 0.42 |
| DRGIKGDITPLMAAANGGHVKIVK [ANKRD17] | 4.42 ± 0.11 | 4.38 ± 0.085 |
| LSICFTCFKAAFLDFKDLLESEDW [TEX19] | 2.62 ± 0.5 | 2.69 ± 0.39 |
| RAPQGCSGVDECARQEGLTFFGTE [PBXIP1] | 4.01 ± 0.35 | 4.3 ± 0.55 |
| HSGEKPYKCSDCGKTFKQSSNLGQ [ZNF232] | 3.76 ± 0.3 | 3.57 ± 0.37 |

| Sequence | protein stability index (treatment: DMSO) | protein stability index (treatment: MLN4924 1 uM, 8 h) |
| --- | --- | --- |
| SDWFNFHGHMCIAFELLGKNTFEF [CLK3] | 3 ± 0.3 | 2.94 ± 0.31 |
| FDHLQNRLIATKNPEEIRGGGLLK [TENT5C] | 3.73 ± 0.26 | 4.09 ± 0.36 |
| ICEATQIIDYLEQTFLDERTPRLM [GDAP1] | 2.39 ± 0.24 | 2.45 ± 0.18 |
| ELEKSGHGQAGQRQDPRPHGPQLP [ZBED2] | 5.01 ± 0.25 | 5.28 ± 0.055 |
| RGLGLGGRRLKSPQAPDPEEEENR [FANCE] | 5.11 ± 0.23 | 5.58 ± 0.38 |
| LRSKLCSLYENDCIFDKFECVWNG [PPP2R2B] | 2.5 ± 0.34 | 2.42 ± 0.39 |
| YYERVLKRKTFNKVLGHVNNILIS [GDAP1] | 2.35 ± 0.35 | 2.64 ± 0.7 |
| LIVHIALPSWADICTNLCEALQNF [M1AP] | 3.02 ± 0.56 | 3.09 ± 0.24 |
| LLLELKGLQEEPVEGFRVTLVDEG [CDC34] | 2.64 ± 0.29 | 2.66 ± 0.21 |
| TVHEVDIFRCFCPVFLHSQMLWEL [DENND6A] | 2.89 ± 0.61 | 3.33 ± 0.49 |
| GSMEQVSSHFLEQTLDKKLMSDLR [INTS4] | 3.72 ± 0.2 | 3.73 ± 0.6 |
| QQPPPPRRAGAACTLRQKLIFSPC [WEE1] | 2.79 ± 0.46 | 2.94 ± 0.099 |
| FLVVREPPRGAVERHSDLPPLNPT [SPNS1] | 2.85 ± 0.39 | 3.09 ± 0.34 |
| NDIFQAANPYWTSRGSSVSMSGGR [TRIM63] | 3.76 ± 0.34 | 3.63 ± 0.062 |
| KHHNLEGLRKRIATLFFHYIKTPL [IQUB] | 3.05 ± 0.27 | 2.66 ± 0.59 |
| WQMIEQIQFIKLFGMAKIDNLLQE [HNF4A] | 2.9 ± 0.7 | 2.33 ± 0.33 |
| VLSREQSRRSYDDQLRSGSPPKSP [DNAJC4] | 5.29 ± 0.26 | 5.45 ± 0.12 |
| QYEKMAEKNRKDAEDWFFSKTEEL [KRT17] | 4.68 ± 0.18 | 4.86 ± 0.18 |
| RGDERILSILRHQNLLKELQDLAL [CHGA] | 2.36 ± 0.4 | 2.41 ± 0.29 |
| LEFRSFWELIGEAAKSVKLERPVR [S100A14] | 1.87 ± 0.2 | 2.33 ± 0.35 |
| HFDLRDDDDAEEEGPKRELGVRRP [TCF25] | 5.32 ± 0.26 | 5.24 ± 0.3 |
| GGHSRERADEPQWSLYPSDSQVSE [CHGB] | 5.28 ± 0.27 | 5.24 ± 0.34 |
| VASVGNSRPTGQQLESLGLLAPGE [KISS1] | 4.44 ± 0.17 | 4.52 ± 0.3 |

| Sequence | protein stability index (treatment: DMSO) | protein stability index (treatment: MLN4924 1 uM, 8 h) |
| --- | --- | --- |
| RPKDTVMCYRVRWEEAAPGRAVEH [MYORG] | 2.85 ± 0.39 | 2.91 ± 0.35 |
| ISLNMCLLGALVLLGLGVLLFSGG [PBXIP1] | 2.03 ± 0.24 | 2.15 ± 0.2 |
| GAGHFEVVKLLVSHGANVNHTTVT [FEM1B] | 2.23 ± 0.51 | 2.26 ± 0.2 |
| SSETPIEGKNMSFVNDLTVTQDGR [APMAP] | 4.96 ± 0.34 | 4.87 ± 0.25 |
| AFDKKVLKFDAYFQEDVPMSTEEQ [EFHC1] | 4.71 ± 0.17 | 4.73 ± 0.18 |
| SVCSCTCYRSQDYGGRSVAPQNSF [KCNK9] | 2.44 ± 0.23 | 2.64 ± 0.43 |
| QLISRMEYVHSKNLIYRDVKPENF [CSNK1G3] | 2.37 ± 0.24 | 2.42 ± 0.17 |
| MGIVNLNIHMNFTHICRSHNSINQ [SLC2A12] | 2.73 ± 0.52 | 2.9 ± 0.46 |
| MIMLKDRRMTVVGRLEGLIQPDDL [FAF2] | 2.34 ± 0.25 | 2.56 ± 0.29 |
| PLSPPTAPDRATAVATASRLGPYV [TRIB3] | 4.72 ± 0.26 | 4.65 ± 0.091 |
| REAKMICFKSVAKTPYDTSRRQEK [ELOA2] | 3.97 ± 0.22 | 4.11 ± 0.58 |
| AELEQHLEQEQEFQVNKLMKKIKK [CCDC6] | 4.61 ± 0.26 | 5.13 ± 0.38 |
| QAIIESCSRQFPEFQERARKRIRT [NOL4L] | 3.69 ± 0.27 | 4.09 ± 0.21 |
| YNDGVINLLEKFFEMKKGQCKDAL [SNAP91] | 2.31 ± 0.3 | 2.34 ± 0.2 |
| FDKEWVAKQTKRMLDMKVNPIQGL [COX4I1] | 2.46 ± 0.44 | 2.78 ± 0.41 |
| DSGVGASLTRSNRHRLRWHSFQSS [DLC1] | 3.03 ± 0.13 | 3.04 ± 0.21 |
| MLERRYTPYPNLYPDQSPSEDWTM [CLCN6] | 3 ± 0.3 | 3.16 ± 0.23 |
| PQGISPVSQHWATWALYNLVSVYP [ZER1] | 3 ± 0.57 | 2.88 ± 0.32 |
| EEIKFYELGEEAMEKFREDEGFIK [KCNA1] | 4.71 ± 0.36 | 4.84 ± 0.14 |
| QLPGLLNFGEFKCSDSDKKCHLWT [CLCN6] | 2.56 ± 0.43 | 2.45 ± 0.36 |
| QTNKPALRAVRQRSEFTLMAKRIG [STX5] | 3.15 ± 0.29 | 3.35 ± 0.25 |
